Assay results reported in publication PMC3979721, “Biochemical Properties of Ectoine Hydroxylases from Extremophiles and Their Wider Taxonomic Distribution among Microorganisms” (PLoS ONE, 2014).

Experiments:
[1] = substrate: CC1=N[C@H](C(=O)O)CCN1; test: HPLC assay of 5-hydroxyectoine formation; assay type: biochemical, Halomonas elongata; details: apparent, with 2-oxoglutarate, Fe(II), O2, optimum pH 8.0, 32 °C and optimised salt, kcat per homodimer
Excerpt: (§1) HPLC assay of 5-hydroxyectoine formation on EctD from H. elongata

[2] = substrate: O=C(O)CCC(=O)C(=O)O; test: HPLC assay of 5-hydroxyectoine formation; assay type: biochemical, Halomonas elongata; details: apparent, co-substrate, with ectoine, Fe(II), O2, pH 8.0, 32 °C
Excerpt: as §1

[3] = substrate: CC1=N[C@H](C(=O)O)CCN1; test: HPLC assay of 5-hydroxyectoine formation; assay type: biochemical, Sphingopyxis alaskensis; details: apparent, with 2-oxoglutarate, Fe(II), O2, optimum pH 8.0, 40 °C and optimised salt, kcat per homodimer
Excerpt: (§2) HPLC assay of 5-hydroxyectoine formation on EctD from S. alaskensis

[4] = substrate: O=C(O)CCC(=O)C(=O)O; test: HPLC assay of 5-hydroxyectoine formation; assay type: biochemical, Sphingopyxis alaskensis; details: apparent, co-substrate, with ectoine, Fe(II), O2, pH 8.0, 40 °C
Excerpt: as §2

[5] = biological target: the molecule itself; test: SEC; 1 ml of protein at 5 mg/ml on a HiLoad 16/600 Superdex 200 pg column, 20 mM TES-buffer containing 150 NaCl; size against standards of 29, 66 and 150 kDa (Fig. S6)
[6] = substrate: CC1=N[C@H](C(=O)O)CCN1; test: HPLC assay of 5-hydroxyectoine formation; assay type: biochemical, Virgibacillus salexigens; details: apparent, with 2-oxoglutarate, Fe(II), O2, TES buffer, optimum pH 7.5, 32 °C and optimised salt, kcat per homodimer
Excerpt: (§3) HPLC assay of 5-hydroxyectoine formation on EctD from V. salexigens (VsEctD)

[7] = substrate: O=C(O)CCC(=O)C(=O)O; test: HPLC assay of 5-hydroxyectoine formation; assay type: biochemical, Virgibacillus salexigens; details: apparent, co-substrate, varied 0-50 mM, with ectoine, Fe(II), O2, pH 7.5, 32 °C
Excerpt: as §3

[8] = substrate: CC1=N[C@H](C(=O)O)CCN1; test: HPLC assay of 5-hydroxyectoine formation; assay type: biochemical, Acidiphilium cryptum; details: apparent, with 2-oxoglutarate, Fe(II), O2, optimum pH 8.0, 32 °C and optimised salt, kcat per homodimer
Excerpt: (§4) HPLC assay of 5-hydroxyectoine formation on EctD from A. cryptum

[9] = substrate: O=C(O)CCC(=O)C(=O)O; test: HPLC assay of 5-hydroxyectoine formation; assay type: biochemical, Acidiphilium cryptum; details: apparent, co-substrate, with ectoine, Fe(II), O2, pH 8.0, 32 °C
Excerpt: as §4

[10] = substrate: CC1=N[C@H](C(=O)O)CCN1; test: HPLC assay of 5-hydroxyectoine formation; assay type: biochemical, Stutzerimonas stutzeri; details: apparent, with 2-oxoglutarate, Fe(II), O2, optimum pH 7.5, 35 °C and optimised salt, kcat per homodimer
Excerpt: (§5) HPLC assay of 5-hydroxyectoine formation on EctD from P. stutzeri

[11] = substrate: O=C(O)CCC(=O)C(=O)O; test: HPLC assay of 5-hydroxyectoine formation; assay type: biochemical, Stutzerimonas stutzeri; details: apparent, co-substrate, with ectoine, Fe(II), O2, pH 7.5, 35 °C
Excerpt: as §5

B1: EctD from H. elongata (Halomonas elongata DSM 2581) (protein)
chain: MSVQTSSNRPLPQANLHIATETPEADSRIRSAPRPGQDPYPTRLSEPLDLPWLNRREPVVKGEEADGPLSAAQLDTFERQGFIFEPDFLKGEELEALRHELNALLARDDFRGRDFAITEPQGNEIRSLFAVHYLSRVFSRLANDERLMGRARQILGGEPYVHQSRINYKPGFEGKGFNWHSDFETWHAEDGMPAMHAVSASIVLTDNHTFNGPLMLVPGSHRVFVPCLGETPEDHHRQSLKTQEFGVPSRQALRELIDRHGIEAPTGAAGGLLLFDCNTLHGSNANMSPDPRSNAFFVYNRRDNRCVEPYAASKRRPRFLAHEPDEAWSPDG
notes: homodimer
Q: With B1 as the protein, how does the Km [1] read?
A: The Km was 5.7 ± 0.6 mM.

Q: And the kcat [1]?
A: The kcat was 2.8 s⁻¹.

Q: What about the kcat/Km [1] of the same protein?
A: The kcat/Km was 490 M⁻¹ s⁻¹.

Q: And the Km [2]?
A: Its Km is 4.8 ± 0.4 mM.

Q: And the kcat [2]?
A: Its kcat is 2.8 s⁻¹.

Q: And the kcat/Km [2]?
A: The kcat/Km was 490 M⁻¹ s⁻¹.

B2: Sphingopyxis alaskensis EctD protein (ectoine hydroxylase) (enzyme, UniProt Q1GNW5 1-306, looked up)
chain: MQDLYPSRQRADAEMRPRLDPVVHSEWTNDAPISARQAAAFDRDGYIVLEDIFSADEVAFLQKAAGNLLADPAALDADTIVTEPQSNEIRSIFEIHAQSPVMARLAADARLADVARFLLGDEVYIHQSRLNYKPGFKGREFYWHSDFETWHVEDGMPRMRALSMSVLLAENTPHNGPLMVIPGSHRTYLTCVGETPDDHYLSSLKKQEYGVPDEESLAELAHRHGIVAPTGKPGTVILFDCNLMHGSNGNITPFPRANAFLVYNAVSNRLEKPFGVEKPRPWFLARRGEPAALRVERGPLVETVPA
notes: Ectoine hydroxylase EctD of Sphingopyxis alaskensis; ectD gene amplified from chromosomal DNA; 35.29 kDa with the nine-residue Strep-tag II peptide; Contains about 0.87-0.96 mol iron per mol protein; also called EctD from S. alaskensis; S. alaskensis enzyme; not shown: Strep-tag II, C-terminal, kept
Q: What does the source list for B2?
A: Km [3]: 9.8 ± 0.5 mM; kcat [3]: 1.2 s⁻¹; kcat/Km [3]: 120 M⁻¹ s⁻¹; Km [4]: 2.7 ± 0.3 mM; stoichiometry N [5]: 2

B3: EctD from V. salexigens (VsEctD) (Virgibacillus salexigens) (protein)
chain: MEDLYPSRQNNQPKILKRKDPVIYTDRSKDNQAPITKEQLDSYEKNGFLQIKNFFSEDEVIDMQKAIFELQDSIKDVASDKVIREPESNDIRSIFHVHQDDNYFQDVANDKRILDIVRHLLGSDVYVHQSRINYKPGFKGKEFDWHSDFETWHVEDGMPRMRAISVSIALSDNYSFNGPLMLIPGSHNYFVSCVGETPDNNYKESLKKQKLGVPDEESLRELTRIGGGISVPTGKAGSVTLFESNTMHGSTSNITPYPRNNLFMVYNSVKNRLVEPFSGGEKRPEYIAVREKQPVYSAVN
notes: homodimer
Q: For B3, which Km [6] is on record?
A: Its Km is 5.9 ± 0.3 mM.

Q: What about the kcat [6] of the same protein?
A: The kcat was 7.7 s⁻¹.

Q: And the kcat/Km [6]?
A: Its kcat/Km is 1310 M⁻¹ s⁻¹.

Q: What about the Km [7] of the same protein?
A: The Km was 4.9 ± 0.3 mM.

B4: EctD from A. cryptum (Acidiphilium cryptum JF-5) (protein)
chain: MDDLYPSRREPTPSLLPRHDPVVHGRWAPGAPLSDEQTRFYDTNGYLVLENVFDPAEIALLQSGSMDLLANPAGLDRETIITERGSDEVRSIFAIHAQNELLGRLAADSRIAGVARFLLDDDVYIHQSRLNYKPGFDGKEFYWHSDFETWHVEDGMPRMRALSMSILLAENTANNGPLMVIPGSHRKYLTCVGETPENHYRSSLKKQEYGVPDREMLTALASDHGIVAPTGKAGTVVLFDCNTMHGSNGNITPFPRSNAFFVFNAKANSLVEPFGPKSRRPDFIADRAFTTVDIVKGPLVRRERAA
notes: homodimer
Q: What does the source list for B4?
A: Km [8]: 10.0 ± 0.6 mM; kcat [8]: 3.4 s⁻¹; kcat/Km [8]: 340 M⁻¹ s⁻¹; Km [9]: 4.1 ± 0.4 mM

B5: EctD from P. stutzeri (Stutzerimonas stutzeri A1501) (protein)
chain: MQADLYPSRQEDQPSWQERLDPVVYRSDLENAPIAAELVERFERDGYLVIPNLFSADEVALFRAELERMRQDPAVAGSGKTIKEPDSGAIRSVFAIHKDNELFARVAADERTAGIARFILGGDLYVHQSRMNFKPGFTGKEFYWHSDFETWHIEDGMPRMRCLSCSILLTDNEPHNGPLMLMPGSHKHYVRCVGATPENHYEKSLRKQEIGIPDQNSLSELASRFGIDCATGPAGSVVFFDCNTMHGSNGNITPSARSNLFYVYNHVDNAVQAPFCEQKPRPAFVAERENFKPLDIRPQQYL
notes: homodimer
Q: How did the Km [10] turn out when B5 was run?
A: Its Km is 6.2 ± 0.4 mM.

Q: And the kcat [10]?
A: Its kcat is 8.9 s⁻¹.

Q: And the kcat/Km [10]?
A: Its kcat/Km is 1440 M⁻¹ s⁻¹.

Q: What about the Km [11] of the same protein?
A: Its Km is 4.6 ± 0.5 mM.
